In paper PMC3579940:

Key:
biotin-EPR-CTF = assay: SPR; BIAcore S51; biotin-EGFR-ligand-CTFs immobilised (~1000 RU) on streptavidin chips; GST-ZnF5-8 0.03-1.0 µM injected at 30 µL/min for 2 min, 25°C; 10 mM HEPES pH 7.4, 150 mM NaCl, 0.005% Surfactant P20; KD = kd/ka
biotin-AR-CTF = assay: as above

Kd (biotin-EPR-CTF): 146 nM
koff (biotin-EPR-CTF): 0.000806 s⁻¹
kon (biotin-EPR-CTF): 5610 M⁻¹ s⁻¹
Kd (biotin-AR-CTF): 76.5 nM
koff (biotin-AR-CTF): 0.00144 s⁻¹
kon (biotin-AR-CTF): 18700 M⁻¹ s⁻¹
Substance: recombinant GST-tagged ZnF5-8 of PLZF (domain or fragment)
